For one test, the target named is Cy3-labelled Crm1 (UniProt O14980). Nature of the test: MST. Particulars: Cy3-labelled Crm1 20 nM; RanBP2-3/4 fragments 0.3 nM-10 μM; no RanQ69L; laser-power 70%, LED-power 20%; parent: est. 0.94; read off a plot.
The target of test [1] is HA-RanBP2 mFG1/2, full-length (human) (UniProt P49792). Nature of the test: co-IP; αHA-agarose immunoprecipitation from nocodazole-arrested HEK293T cells depleted of endogenous RanBP2 by siRNA and transfected with HA-RanBP2 constructs; Crm1 blot normalised to HA-RanBP2, three biological replicates.

On to “RanBP2-3/4-His (aa 2,304–3,062), free fragment (from UniProt P49792) mFG12 (= mFG1/2, 11 F to S mutations in both FG-repeat patches; positions not printed)”, for which the other: fraction of bound Crm1-Cy3 at the highest RanBP2-3/4 concentration (10,000 nM) with Cy3-labelled Crm1 amounted to 0.04.

Consider “Crm1, endogenous (HEK293T) (from UniProt O14980 1-1071) (natural protein)”, for which the reduction of co-immunoprecipitated Crm1 against wild-type HA-RanBP2 in test [1] was 40%.

For the origin of these results see article PMC4866044.
